Key:
hMCM2-7 = hMCM2-7 (human, UniProt P49736;P25205;P33991;P33992;Q14566;P33993 1-904;1-808;1-863;1-734;1-821;1-719); assay: negative stain EM, in-solution loading; double hexamers; loaded by ORC1-5, ORC6, CDC6, CDT1deltaN, ATP; more than without ORC6; 25 mM HEPES-KOH pH 7.5, 250 mM KGlu, 1 mM DTT, 4 mM MgOAc, 0.1% Triton X-100, 1 mM ATP or ATPgS, 30 C; high-salt wash adds 300 mM NaCl; in-solution: HEPES-NaOH, 0.05% Triton X-100; details: protein: recombinant; tags: N-terminal Twin-Strep MCM2; N-terminal 8xHis MCM4; chain copies: 2;2;2;2;2;2; blunt
hORC1-5;hCDC6 = hORC1-5;hCDC6 (human;human, UniProt Q13415;Q13416;Q9UBD5;O43929;O43913;Q99741 1-861;1-577;1-711;1-436;1-435;1-560, |); assay: pull-down via Strep-hORC1; CDC6 retained with ORC1-5 only with DNA; 25 mM HEPES-KOH pH 7.5, 250 mM KGlu, 1 mM DTT, 4 mM MgOAc, 0.1% Triton X-100, 1 mM ATP or ATPgS, 30 C; high-salt wash adds 300 mM NaCl; in-solution: HEPES-NaOH, 0.05% Triton X-100; details: protein: recombinant;recombinant; tags: N-terminal Twin-Strep on ORC1 (removed with SUMOstar protease in some preps);GST, cleaved; copies: 1;1;1;1;1;1; blunt

B1: 158 bp lamin B2 (dsDNA)
DNA 1: GCCTGCCGCGCATGCGCACGAGGCACCCGGCGCGTCTATACAGCGTGTTGCCGCCGGGGCGGAGCCCGGTCGCATCACGTGACGAAGAGTCAGCTTGTGCAACAGCGTCGGAGGCTCACTAGAAAAAAAAGGGCAGGGTCCCATGCATCGCCTGGGTC
DNA 2: GACCCAGGCGATGCATGGGACCCTGCCCTTTTTTTTCTAGTGAGCCTCCGACGCTGTTGCACAAGCTGACTCTTCGTCACGTGATGCGACCGGGCTCCGCCCCGGCGGCAACACGCTGTATAGACGCGCCGGGTGCCTCGTGCGCATGCGCGGCAGGC
binding result (hMCM2-7): binds

B2: 90 bp ARS1 (dsDNA)
DNA 1: GTTATTTTACAGATTTTATGTTTAGATCTTTTATGCTTGCTTTTCAAAAGGCCTGCAGGCAAGTGCACAAACAATACTTAAATAAATACTA
DNA 2: TAGTATTTATTTAAGTATTGTTTGTGCACTTGCCTGCAGGCCTTTTGAAAAGCAAGCATAAAAGATCTAAACATAAAATCTGTAAAATAAC
binding result (hORC1-5;hCDC6): binds

Source: PMC11711466, “Reconstitution of human DNA licensing and the structural and functional analysis of key intermediates”
